From PMC5458251 come the findings set out here.

The test concerns the target SEPT9_i1-YN (split-YFP chimera: septin 9 isoform 1 with EE tag, linker and N-terminal YFP fragment on its C-terminus) (human) (UniProt Q9UHD8). The experiment in a line: split reporter (BiFC, NanoBiT); split YFP (YN/YC) in live PC-3 cells, transient co-transfection with 10-fold more HIF-1α plasmid than SEPT9_i1 plasmid, confocal imaging 48 h after transfection; cells treated overnight with 250 μM CoCl2, 100 μM DBM, DBM with 1 μM 17-AAG or 150 μM FCF, or 0.01% DMSO.
Chain of UniProt Q9UHD8 (Q9UHD8 whole entry, change not shown, the tested form may be a part, canonical isoform): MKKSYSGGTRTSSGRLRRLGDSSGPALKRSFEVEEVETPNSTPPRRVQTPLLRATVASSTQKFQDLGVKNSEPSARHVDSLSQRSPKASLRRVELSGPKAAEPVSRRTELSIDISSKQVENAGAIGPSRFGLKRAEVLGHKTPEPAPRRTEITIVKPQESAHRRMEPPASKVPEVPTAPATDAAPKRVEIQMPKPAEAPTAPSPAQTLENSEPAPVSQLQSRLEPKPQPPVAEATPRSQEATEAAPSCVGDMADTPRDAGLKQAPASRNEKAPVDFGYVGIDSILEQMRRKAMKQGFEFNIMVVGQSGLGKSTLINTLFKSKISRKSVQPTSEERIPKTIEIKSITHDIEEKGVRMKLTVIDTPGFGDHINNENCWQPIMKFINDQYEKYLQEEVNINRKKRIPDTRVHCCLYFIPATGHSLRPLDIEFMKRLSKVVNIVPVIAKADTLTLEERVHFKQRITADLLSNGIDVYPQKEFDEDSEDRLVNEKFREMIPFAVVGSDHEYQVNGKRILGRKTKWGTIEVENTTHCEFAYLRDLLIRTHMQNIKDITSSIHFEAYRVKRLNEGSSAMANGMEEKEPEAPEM

In turn, “YC-HIF-1α-DPM (YC chimera of double proline mutated HIF-1α) (from UniProt Q16665 1-826) (natural protein)” displayed a fold BiFC signal against YC-ΔHLH-HIF-1α with SEPT9 i1-YN of 11 fold.
